Measurements from patent US20220175839.

Experiments:
Assay in all cases: cell_activity
[1] = tested on: TALEN 103113 (synthetic); settings: pair with 103114; K562, 400 ng
[2] = tested on: TALEN 103119 (synthetic); settings: pair with 103120 (not in Table 2B); K562, 400 ng
[3] = tested on: TALEN 103109 (synthetic); settings: pair with 103110; K562, 400 ng
[4] = tested on: TALEN 103107 (synthetic); settings: pair with 103108; K562, 400 ng
[5] = tested on: TALEN 103114 (synthetic); settings: pair with 103113; K562, 400 ng
[6] = tested on: TALEN 103111 (synthetic); settings: pair with 103112; K562, 400 ng
[7] = tested on: TALEN 103112 (synthetic); settings: pair with 103111; K562, 400 ng
[8] = tested on: TALEN 103115 (synthetic); settings: pair with 103116; K562, 400 ng
[9] = tested on: TALEN 103108 (synthetic); settings: pair with 103107; K562, 400 ng
[10] = tested on: TALEN 103110 (synthetic); settings: pair with 103109; K562, 400 ng
[11] = tested on: TALEN 103117 (synthetic); settings: pair with 103118; K562, 400 ng
[12] = tested on: TALEN 103116 (synthetic); settings: pair with 103115; K562, 400 ng
[13] = tested on: TALEN 103118 (synthetic); settings: pair with 103117; K562, 400 ng
[14] = tested on: TALEN 103106 (synthetic); settings: pair with 103105; K562, 400 ng

ATGAGTATGCCTGCCGTGTGA (double strand) [TALEN 103113 site]
activity [1]: 26.6 % indel

ATGTGACTTTGTCACAGCCCA (double strand) [TALEN 103119 site]
activity [2]: 57.7 % indel

ATTCACCCCCACTGAAAAAGA (double strand) [TALEN 103107/103109 site]
activity [3]: 8 % indel | activity [4]: 4.2 % indel

CTATCTTGGGCTGTGACAAAG (double strand) [TALEN 103114 site]
activity [5]: 26.6 % indel

CTGAAAAAGATGAGTATGCCT (double strand) [TALEN 103111 site]
activity [6]: 26.5 % indel

CTGTGACAAAGTCACATGGTT (double strand) [TALEN 103112 site]
activity [7]: 26.5 % indel

GTATGCCTGCCGTGTGAACCA (double strand) [TALEN 103115 site]
activity [8]: 66.1 % indel

GTCACATGGTTCACACGGCAG (double strand) [TALEN 103108/103110 site]
activity [9]: 4.2 % indel | activity [10]: 8 % indel

GTGTGAACCATGTGACTTTGT (double strand) [TALEN 103117 site]
activity [11]: 45.7 % indel

TTAACTATCTTGGGCTGTGAC (double strand) [TALEN 103116 site]
activity [12]: 66.1 % indel

TTACCCCACTTAACTATCTTG (double strand) [TALEN 103118 site]
activity [13]: 45.7 % indel

TTCACACGGCAGGCATACTCA (double strand) [TALEN 103106 site]
activity [14]: 14.2 % indel
